Data from patent publication US20130064834A1 (published 2013).
Each block holds one binder with its values, some of them ahead of it.

Experiments:
[1] = target: T1, Human PCSK9-myc-myc-his (human, UniProt Q8NBP7 31-692); assay: SPR, mAb captured on anti-hFc, 25C
T1 construct: also called hPCSK9-mmh; hPCSK9

[2] = target: T2, tagged rhesus monkey (Macaca mulata) PCSK9 (rhesus monkey (Macaca mulata), UniProt A8T666 31-692); assay: SPR, mAb captured on anti-hFc, 25C
T2 construct: also called mmPCSK9-mmh; mmPCSK9

[3] = target: T3, cynomolgus monkey (Macaca fascicularis) PCSK9, myc-myc-his tagged (cynomolgus monkey (Macaca fascicularis), UniProt A8T662 31-692 (Macaca nemestrina entry), limits assumed); assay: SPR, mAb captured on anti-hFc, 25C
T3 construct: also called mfPCSK9-mmh; mfPCSK9

[4] = target: T4, hPCSK9(D374Y)-mmh (human, UniProt Q8NBP7 31-692); assay: SPR, mAb captured on anti-hFc, 25C
T4 construct: also called hPCSK(D374Y)-mmh

[5] = target: T5, human PCSK7, myc-myc-his tagged (human, UniProt Q16549 142-667, limits assumed); assay: SPR, mAb captured on anti-hFc, 25C
T5 construct: also called hPCSK7-mmh; hPCSK7
T5 sequence: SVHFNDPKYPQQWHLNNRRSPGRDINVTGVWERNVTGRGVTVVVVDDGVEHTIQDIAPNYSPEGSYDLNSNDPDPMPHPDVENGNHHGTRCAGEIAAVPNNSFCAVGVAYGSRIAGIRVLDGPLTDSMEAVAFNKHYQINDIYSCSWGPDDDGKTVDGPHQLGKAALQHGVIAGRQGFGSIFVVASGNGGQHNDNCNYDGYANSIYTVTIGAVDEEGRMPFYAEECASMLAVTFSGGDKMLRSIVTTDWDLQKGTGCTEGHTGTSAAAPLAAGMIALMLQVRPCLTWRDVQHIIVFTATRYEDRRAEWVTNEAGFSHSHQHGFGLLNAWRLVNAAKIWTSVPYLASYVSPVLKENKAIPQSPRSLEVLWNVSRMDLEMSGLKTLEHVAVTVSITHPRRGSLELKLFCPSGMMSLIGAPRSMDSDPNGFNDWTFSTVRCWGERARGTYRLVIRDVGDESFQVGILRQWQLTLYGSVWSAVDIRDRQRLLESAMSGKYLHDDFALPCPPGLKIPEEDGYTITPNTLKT

[6] = target: T6, hPCSK9(E366K) (human, UniProt Q8NBP7 31-692); assay: SPR, mAb captured, 25C
T6 construct: mmh-tagged variant hPCSK9
From the text: (§1) Each selected antibody was captured on a F(ab′)2 anti-hIgG surface created through direct chemical coupling to a BIACORE™ chip to form a captured antibody surface.

[7] = target: T7, rat (Rattus norvegicus) PCSK9, myc-myc-his tagged (rat (Rattus norvegicus), UniProt P59996 31-691); assay: SPR, mAb amine-coupled, 25C, pH 7.4
T7 construct: also called rPCSK9-mmh; rPCSK9
From the text: (§2) Briefly, mAbs were immobilized onto BIACORE™ CM5 sensor chips via amine coupling.

[8] = target: T8, mouse PCSK9, myc-myc-his tagged (mouse, UniProt Q80W65 35-694); assay: SPR, mAb amine-coupled, 25C, pH 7.4
T8 construct: also called mPCSK9-mmh; mPCSK9
From the text: as §2

[9] = target: T9, his-tagged Syrian golden hamster (Mesocricetus auratus) PCSK9 (Syrian golden hamster (Mesocricetus …)); assay: SPR, mAb amine-coupled, 25C, pH 7.4
T9 construct: also called maPCSK9-h; maPCSK9
T9 chain: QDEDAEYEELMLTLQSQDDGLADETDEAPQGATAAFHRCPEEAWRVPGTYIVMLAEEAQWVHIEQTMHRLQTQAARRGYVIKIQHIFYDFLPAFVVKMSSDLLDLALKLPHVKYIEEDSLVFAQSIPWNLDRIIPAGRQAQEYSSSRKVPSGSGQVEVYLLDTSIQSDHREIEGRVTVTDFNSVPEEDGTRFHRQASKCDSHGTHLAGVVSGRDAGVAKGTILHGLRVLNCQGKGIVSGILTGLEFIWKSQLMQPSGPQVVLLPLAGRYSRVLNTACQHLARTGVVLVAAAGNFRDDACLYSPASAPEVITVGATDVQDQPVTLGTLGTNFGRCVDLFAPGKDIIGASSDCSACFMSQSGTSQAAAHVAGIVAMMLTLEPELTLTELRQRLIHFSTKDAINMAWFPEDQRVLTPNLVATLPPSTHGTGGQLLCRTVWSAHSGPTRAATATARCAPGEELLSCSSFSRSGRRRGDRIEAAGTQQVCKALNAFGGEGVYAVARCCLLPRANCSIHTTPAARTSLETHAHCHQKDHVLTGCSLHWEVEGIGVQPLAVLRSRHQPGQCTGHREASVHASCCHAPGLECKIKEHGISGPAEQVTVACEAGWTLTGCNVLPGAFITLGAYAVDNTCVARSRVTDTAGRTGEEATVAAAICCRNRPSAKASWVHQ
From the text: as §2

[10] = target: T1, Human PCSK9-myc-myc-his; assay: SPR, mAb captured, 25C
Method: Each selected antibody was captured at a flowrate of 2 μl/min for 6 min on a goat anti-human IgG polyclonal antibody surface created through direct chemical coupling to a BIACORE™ chip to form a captured antibody surface.

[11] = target: T7, rat (Rattus norvegicus) PCSK9, …; assay: SPR, mAb amine-coupled, 37C, pH 7.4
From the text: as §2

[12] = target: T8, mouse PCSK9, myc-myc-his tagged; assay: SPR, mAb amine-coupled, 37C, pH 7.4
From the text: as §2

[13] = target: T9, his-tagged Syrian golden hamster …; assay: SPR, mAb amine-coupled, 37C, pH 7.4
From the text: as §2

[14] = target: T10, hPCSK9(D238R) (human, UniProt Q8NBP7 31-692); assay: SPR, mAb captured, 25C
T10 construct: mmh-tagged variant hPCSK9
From the text: as §1

T7 sequence (P59996 31-691 limits assumed): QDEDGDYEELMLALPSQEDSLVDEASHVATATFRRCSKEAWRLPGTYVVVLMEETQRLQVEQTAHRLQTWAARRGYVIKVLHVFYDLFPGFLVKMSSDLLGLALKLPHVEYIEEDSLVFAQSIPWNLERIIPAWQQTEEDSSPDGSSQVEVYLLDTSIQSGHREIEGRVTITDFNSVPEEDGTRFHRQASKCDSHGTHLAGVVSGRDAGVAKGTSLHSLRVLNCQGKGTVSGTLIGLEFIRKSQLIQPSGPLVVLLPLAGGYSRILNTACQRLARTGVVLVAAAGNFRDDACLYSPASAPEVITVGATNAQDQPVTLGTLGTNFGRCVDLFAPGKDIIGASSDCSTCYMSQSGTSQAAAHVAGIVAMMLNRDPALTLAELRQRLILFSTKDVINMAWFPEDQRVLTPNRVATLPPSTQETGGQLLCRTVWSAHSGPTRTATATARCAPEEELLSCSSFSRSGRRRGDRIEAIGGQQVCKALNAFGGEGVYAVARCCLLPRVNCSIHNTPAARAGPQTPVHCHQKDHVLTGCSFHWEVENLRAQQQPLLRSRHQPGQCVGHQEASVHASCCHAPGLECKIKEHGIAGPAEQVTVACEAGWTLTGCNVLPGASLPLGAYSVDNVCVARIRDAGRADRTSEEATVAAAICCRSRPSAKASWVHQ
T2 sequence (A8T666 31-692 limits assumed): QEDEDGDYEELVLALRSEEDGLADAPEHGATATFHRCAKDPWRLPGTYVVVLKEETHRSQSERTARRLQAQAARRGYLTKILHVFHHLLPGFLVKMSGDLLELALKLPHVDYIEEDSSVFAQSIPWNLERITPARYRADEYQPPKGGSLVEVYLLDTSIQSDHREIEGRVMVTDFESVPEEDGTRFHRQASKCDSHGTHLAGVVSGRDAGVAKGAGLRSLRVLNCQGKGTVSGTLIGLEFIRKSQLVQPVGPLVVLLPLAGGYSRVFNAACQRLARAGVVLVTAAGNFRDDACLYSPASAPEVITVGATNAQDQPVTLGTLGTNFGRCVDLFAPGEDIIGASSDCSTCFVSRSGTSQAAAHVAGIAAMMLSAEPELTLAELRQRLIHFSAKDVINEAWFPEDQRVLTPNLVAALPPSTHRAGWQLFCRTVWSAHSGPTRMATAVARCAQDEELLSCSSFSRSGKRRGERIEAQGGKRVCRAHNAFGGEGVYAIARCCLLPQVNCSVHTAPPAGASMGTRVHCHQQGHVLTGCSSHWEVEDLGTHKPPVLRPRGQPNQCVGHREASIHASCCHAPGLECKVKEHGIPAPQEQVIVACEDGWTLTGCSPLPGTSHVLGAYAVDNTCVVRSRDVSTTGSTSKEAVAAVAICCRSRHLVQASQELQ
T3 sequence (A8T662 31-692 limits assumed): as the sequence (A8T666 31-692 limits assumed) above, with P607A, K639E counted along it

Kd [1]: 0.74 nM
T1/2 [1]: 110 min
Kd [2]: 0.61 nM
T1/2 [2]: 79 min
Kd [3]: 1.5 nM
T1/2 [3]: 45 min
Kd [4]: 0.9 nM
T1/2 [4]: 65 min
binding result [5]: no binding (tested: 100 nM)
fold reduction of binding against wildtype hPCSK9 [6]: ~50 fold
B1: H1M300N (antibody, V domains shown)
VH: EMQLVESGGGLVQPGGSLRLSCAASGFTFSSHWMKWVRQAPGKGLEWVANINQDGSEKYYVDSVKGRFTISRDNAKNSLFLQMNSLRAEDTAVYYCARDIVLMVYDMDYYYYGMDVWGQGTTVTVSS
VL: not shown
notes: Fully human version made in CHO cells

B2: H1H316P (antibody, V domains shown)
VH: EVQLVESGGGLVQPGGSLRLSCAASGFTFNNYAMNWVRQAPGKGLDWVSTISGSGGTTNYADSVKGRFIISRDSSKHTLYLQMNSLRAEDTAVYYCAKDSNWGNFDLWGRGTLVTVSS
VL: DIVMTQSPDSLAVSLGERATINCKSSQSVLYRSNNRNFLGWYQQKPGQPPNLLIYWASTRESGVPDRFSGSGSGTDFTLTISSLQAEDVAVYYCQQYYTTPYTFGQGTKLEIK
notes: Fully human mAb made in CHO cells; also called mAb316P
Kd [7]: 24.1 nM
T1/2 [7]: 2 min
Kd [8]: 4.46 nM
T1/2 [8]: 10 min
Kd [9]: 8.35 nM
T1/2 [9]: 8 min
Kd [10]: 0.377 nM
T1/2 [10]: 42 min
Kd [11]: 55.1 nM
T1/2 [11]: 2 min
Kd [12]: 12.2 nM
T1/2 [12]: 3 min
Kd [13]: 21.7 nM
T1/2 [13]: 2 min
fold reduction of binding affinity against wildtype hPCSK9 [14]: > 400 fold
fold shortening of T1/2 against wildtype hPCSK9 [14]: ~30 fold
